This is an account of results in the supplement of paper PMC9112550, “Optimization of the antimicrobial peptide Bac7 by deep mutational scanning” (BMC Biology, 2022).

The subject of the data set is Escherichia coli TOP10. The experiment in a line: shrunken log2 fold change of peptide-encoding DNA abundance (4.5 h post-induction vs induction); higher = less antimicrobial activity (less host growth inhibition). The note with it: time post-induction: 4.5 h; library: site-saturation at positions 5, 18, 19, 20.
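Further: peptides expressed intracellularly from a pBAD plasmid library in pooled LB shake-flask culture, induced with 0.3% L-arabinose, DNA abundance read by NGS, three biological replicates, DESeq2 with apeglm shrinkage.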

Turning to RRIRMRPPRLPRPRPRPDQLPRP, the “shrunken log2 fold change” value is 0.391. To RRIRERPPRLPRPRPRPKAWPRP belongs 0.0873; to RRIRCRPPRLPRPRPRPGHCPRP, -0.0435. To RRIRERPPRLPRPRPRPEHSPRP belongs -0.312. With RRIRVRPPRLPRPRPRPPLYPRP, the “shrunken log2 fold change” value is -0.00849. On to RRIRYRPPRLPRPRPRPSWRPRP, for which the “shrunken log2 fold change” value is -0.137. To RRIRTRPPRLPRPRPRPFDPPRP belongs -0.112; to RRIRCRPPRLPRPRPRPDKLPRP, 0.0152. As to RRIRNRPPRLPRPRPRPCTGPRP, the “shrunken log2 fold change” value was -0.0472. Turning to RRIRARPPRLPRPRPRPSRTPRP, the “shrunken log2 fold change” value was determined as 0.471.

RRIRMRPPRLPRPRPRPPPSPRP: the “shrunken log2 fold change” value was found to be 1.95. To RRIRQRPPRLPRPRPRPRSPPRP belongs 0.0984. To RRIRTRPPRLPRPRPRPCWFPRP belongs -0.21; to RRIRIRPPRLPRPRPRPCLFPRP, -0.639; to RRIRKRPPRLPRPRPRPDCSPRP, -0.0754. Regarding RRIRPRPPRLPRPRPRPKCCPRP, the “shrunken log2 fold change” value was found to be 0.228. For the sequence RRIRMRPPRLPRPRPRPMGIPRP, the “shrunken log2 fold change” value is -0.0393. Regarding RRIRCRPPRLPRPRPRPAYIPRP, the “shrunken log2 fold change” value was -0.628. To RRIRTRPPRLPRPRPRPHTMPRP belongs -0.406.

In the case of RRIRNRPPRLPRPRPRPFAPPRP, the “shrunken log2 fold change” value was -0.0816. Consider RRIRSRPPRLPRPRPRPLVIPRP, for which the “shrunken log2 fold change” value was -0.281. For RRIRARPPRLPRPRPRPFTNPRP, the “shrunken log2 fold change” value was -0.273.

RRIRWRPPRLPRPRPRPYWVPRP: the “shrunken log2 fold change” value is -0.294. To RRIRNRPPRLPRPRPRPNSPPRP belongs 0.0941. For RRIRERPPRLPRPRPRPELAPRP, the “shrunken log2 fold change” value came to 0.161. RRIRCRPPRLPRPRPRPDDEPRP: the “shrunken log2 fold change” value stood at 0.33. To RRIRTRPPRLPRPRPRPDWMPRP belongs 0.0121. Turning to RRIRLRPPRLPRPRPRPQVAPRP, the “shrunken log2 fold change” value was determined as 0.0825.

As for RRIRHRPPRLPRPRPRPVLQPRP, the “shrunken log2 fold change” value is -0.169. On to RRIRMRPPRLPRPRPRPYNYPRP, for which the “shrunken log2 fold change” value was -0.2. To RRIRWRPPRLPRPRPRPIHNPRP belongs -0.458. To RRIRNRPPRLPRPRPRPFQYPRP belongs -0.0242; to RRIRQRPPRLPRPRPRPPPEPRP, 0.952. For the sequence RRIRNRPPRLPRPRPRPSVLPRP, the “shrunken log2 fold change” value came out at 0.0978. As to RRIRLRPPRLPRPRPRPSMEPRP, the “shrunken log2 fold change” value is -0.371. To RRIRFRPPRLPRPRPRPPLEPRP belongs 0.288. Take RRIRNRPPRLPRPRPRPNFSPRP: the “shrunken log2 fold change” value was -0.0166.

On to RRIRQRPPRLPRPRPRPYDIPRP, for which the “shrunken log2 fold change” value was found to be 0.0432. As for RRIRNRPPRLPRPRPRPVSYPRP, the “shrunken log2 fold change” value stood at 0.0156.

Turning to RRIRPRPPRLPRPRPRPRADPRP, the “shrunken log2 fold change” value turned out to be 0.335.

As to RRIRNRPPRLPRPRPRPINRPRP, the “shrunken log2 fold change” value was -0.0423. To RRIRNRPPRLPRPRPRPRPDPRP belongs 0.0914. As to RRIRLRPPRLPRPRPRPMHCPRP, the “shrunken log2 fold change” value is -0.00782. As for RRIRSRPPRLPRPRPRPHGQPRP, the “shrunken log2 fold change” value came out at 0.24.

For the sequence RRIRLRPPRLPRPRPRPCHVPRP, the “shrunken log2 fold change” value was -0.412. To RRIRVRPPRLPRPRPRPGRRPRP belongs 0.236; to RRIRCRPPRLPRPRPRPNNHPRP, -0.731; to RRIRFRPPRLPRPRPRPENDPRP, 0.0619. In the case of RRIRPRPPRLPRPRPRPKDFPRP, the “shrunken log2 fold change” value is -0.141. For RRIRQRPPRLPRPRPRPECMPRP, the “shrunken log2 fold change” value was -0.0252.

Regarding RRIRNRPPRLPRPRPRPPVVPRP, the “shrunken log2 fold change” value was 0.000966.

Regarding RRIRDRPPRLPRPRPRPEYCPRP, the “shrunken log2 fold change” value was -0.0172. With RRIRKRPPRLPRPRPRPFAAPRP, the “shrunken log2 fold change” value is 0.662. Consider RRIRQRPPRLPRPRPRPQSSPRP, for which the “shrunken log2 fold change” value worked out at 0.0994. For RRIRYRPPRLPRPRPRPMMEPRP, the “shrunken log2 fold change” value was -0.141. As for RRIRLRPPRLPRPRPRPGLWPRP, the “shrunken log2 fold change” value was 0.863. To RRIRSRPPRLPRPRPRPKESPRP belongs 0.284; to RRIRDRPPRLPRPRPRPVWYPRP, -0.134; to RRIRGRPPRLPRPRPRPFEHPRP, 0.212. RRIRHRPPRLPRPRPRPKLIPRP: the “shrunken log2 fold change” value is -0.0143. On to RRIRRRPPRLPRPRPRPFIGPRP, for which the “shrunken log2 fold change” value was -0.25. Consider RRIRERPPRLPRPRPRPNWKPRP, for which the “shrunken log2 fold change” value was -0.0166.

For RRIRLRPPRLPRPRPRPQGVPRP, the “shrunken log2 fold change” value is -0.0316.

For RRIRGRPPRLPRPRPRPNNHPRP, the “shrunken log2 fold change” value is -0.15. To RRIRSRPPRLPRPRPRPDCEPRP belongs 0.259; to RRIRLRPPRLPRPRPRPCKRPRP, -0.0962; to RRIRMRPPRLPRPRPRPQPCPRP, 0.376. For the sequence RRIRNRPPRLPRPRPRPPQFPRP, the “shrunken log2 fold change” value is 0.334. To RRIRKRPPRLPRPRPRPCIEPRP belongs -0.00715.

In the case of RRIRARPPRLPRPRPRPIRNPRP, the “shrunken log2 fold change” value was -0.179. To RRIRCRPPRLPRPRPRPEIFPRP belongs -0.422; to RRIRSRPPRLPRPRPRPYPWPRP, -0.591; to RRIRMRPPRLPRPRPRPPEGPRP, 0.338. Consider RRIRHRPPRLPRPRPRPLYSPRP, for which the “shrunken log2 fold change” value was -0.792.

For the sequence RRIRDRPPRLPRPRPRPTFSPRP, the “shrunken log2 fold change” value was found to be 0.743.

On to RRIRSRPPRLPRPRPRPTHHPRP, for which the “shrunken log2 fold change” value worked out at 0.189.

Take RRIRGRPPRLPRPRPRPCTVPRP: the “shrunken log2 fold change” value is 0.032. In the case of RRIRPRPPRLPRPRPRPHRKPRP, the “shrunken log2 fold change” value is -0.0741. RRIRYRPPRLPRPRPRPNGSPRP: the “shrunken log2 fold change” value is -0.289. RRIRKRPPRLPRPRPRPPPSPRP: the “shrunken log2 fold change” value turned out to be 0.911. Turning to RRIRMRPPRLPRPRPRPWRHPRP, the “shrunken log2 fold change” value is 0.0256. Regarding RRIRNRPPRLPRPRPRPQPMPRP, the “shrunken log2 fold change” value is -0.111. For the sequence RRIRQRPPRLPRPRPRPHVAPRP, the “shrunken log2 fold change” value is -0.0333. Consider RRIRSRPPRLPRPRPRPERFPRP, for which the “shrunken log2 fold change” value is 0.196. Regarding RRIRFRPPRLPRPRPRPHNVPRP, the “shrunken log2 fold change” value turned out to be 0.0631. RRIRSRPPRLPRPRPRPQLEPRP: the “shrunken log2 fold change” value turned out to be 0.455. To RRIRGRPPRLPRPRPRPLHKPRP belongs 0.714; to RRIRHRPPRLPRPRPRPMADPRP, 0.0417. Turning to RRIRHRPPRLPRPRPRPASKPRP, the “shrunken log2 fold change” value was -0.0351. For RRIRWRPPRLPRPRPRPLTLPRP, the “shrunken log2 fold change” value was -0.00729.

RRIRSRPPRLPRPRPRPIPCPRP: the “shrunken log2 fold change” value is -0.297.
